Patent publication US20130302250A1 (published 2013)
Where a chain is given by its changes, count along the chain named. Each block holds one binder with its values, some of them ahead of it.

Assays:
[1] = molecular target: T1, mouse serum albumin (mouse, UniProt P07724 25-608); assay: SPR (BIAcore), pH 7.4
T1 construct: also called MSA; mouse albumin

[2] = molecular target: T2, rat serum albumin (rat, UniProt P02770 25-608); assay: SPR (BIAcore), pH 7.4
T2 construct: also called RSA; rat albumin

[3] = molecular target: T3, human serum albumin (human, UniProt P02768 25-609); assay: SPR (BIAcore), pH 7.4
T3 construct: also called HSA; HAS

[4] = molecular target: T1, mouse serum albumin; assay: SPR (BIAcore), pH 6.0
[5] = molecular target: T2, rat serum albumin; assay: SPR (BIAcore), pH 6.0
[6] = molecular target: T3, human serum albumin; assay: SPR (BIAcore), pH 6.0

T2 sequence (P02770 25-608 limits assumed): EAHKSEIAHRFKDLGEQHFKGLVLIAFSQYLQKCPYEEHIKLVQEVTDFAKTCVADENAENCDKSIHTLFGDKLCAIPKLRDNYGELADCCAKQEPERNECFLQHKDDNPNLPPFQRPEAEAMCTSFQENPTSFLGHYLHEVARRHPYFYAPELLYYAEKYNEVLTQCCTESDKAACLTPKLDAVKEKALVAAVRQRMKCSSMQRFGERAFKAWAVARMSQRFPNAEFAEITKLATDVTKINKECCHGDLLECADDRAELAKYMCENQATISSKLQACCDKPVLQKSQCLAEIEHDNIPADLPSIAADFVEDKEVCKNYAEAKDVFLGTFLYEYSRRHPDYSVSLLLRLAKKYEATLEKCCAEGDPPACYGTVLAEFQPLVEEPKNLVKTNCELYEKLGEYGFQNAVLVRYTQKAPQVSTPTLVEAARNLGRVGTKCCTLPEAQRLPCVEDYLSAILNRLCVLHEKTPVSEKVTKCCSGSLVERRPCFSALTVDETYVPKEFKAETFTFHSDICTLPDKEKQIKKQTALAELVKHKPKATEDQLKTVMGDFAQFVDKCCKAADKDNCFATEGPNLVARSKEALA
T1 sequence (P07724 25-608 limits assumed): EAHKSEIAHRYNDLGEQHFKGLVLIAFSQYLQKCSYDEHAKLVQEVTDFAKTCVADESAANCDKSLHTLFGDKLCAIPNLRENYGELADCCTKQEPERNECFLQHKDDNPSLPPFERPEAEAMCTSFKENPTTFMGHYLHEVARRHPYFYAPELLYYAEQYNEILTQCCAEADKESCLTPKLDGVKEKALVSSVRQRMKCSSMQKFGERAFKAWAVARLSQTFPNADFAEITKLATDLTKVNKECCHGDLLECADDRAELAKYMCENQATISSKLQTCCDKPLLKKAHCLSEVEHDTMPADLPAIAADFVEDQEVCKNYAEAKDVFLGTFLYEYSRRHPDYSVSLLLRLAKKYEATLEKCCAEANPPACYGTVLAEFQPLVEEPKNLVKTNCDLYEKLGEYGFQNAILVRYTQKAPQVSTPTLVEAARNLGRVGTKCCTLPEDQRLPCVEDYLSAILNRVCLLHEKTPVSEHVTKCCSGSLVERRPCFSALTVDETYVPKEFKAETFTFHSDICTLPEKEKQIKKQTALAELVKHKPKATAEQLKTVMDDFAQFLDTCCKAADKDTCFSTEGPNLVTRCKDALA

% Surface Active [1]: 78.2%
% Surface Active [2]: 72.9%
% Surface Active [3]: 77.8%
% Surface Active [4]: 16.3%
% Surface Active [5]: 17.4%
% Surface Active [6]: 29%
B1: huE06 v1.1 (VNAR)
VNAR: TRVDQSPSSLSASVGDRVTITCVLTDTSYPLYSTYWYQQKPGSSNKEQISISGRYSESVNKGTKSFTLTISSLQPEDFATYYCRAMGTNIWTGDGAGTKVEIKH
notes: Humanized VNAR; also called humanized E06 variant 1.1

% Surface Active [1]: 78.2%
% Surface Active [2]: 79.3%
% Surface Active [3]: 79.8%
% Surface Active [4]: 24.5%
% Surface Active [5]: 27.4%
% Surface Active [6]: 39.3%
B2: huE06 v1.10 (VNAR)
VNAR: B1 VNAR with Q38R, Q39K, K40N
notes: Humanized VNAR; also called hE06v1.10

% Surface Active [1]: 85.2%
% Surface Active [2]: 88.4%
% Surface Active [3]: 85.3%
% Surface Active [4]: 34.2%
% Surface Active [5]: 39.5%
% Surface Active [6]: 49.6%
B3: E06 (VNAR)
VNAR: TRVDQTPRTATRETGESLTINCVLTDTSYPLYSTYWYRKNPGSSNKEQISISGRYVESVNKGTKSFSLRIKDLTVADSATYICRAMGTNIWTGDGAGTVLTVNA
notes: Shark (Squalus acanthias) VNAR single domain, type IV; tested as monomeric 6xHis-tagged protein; also called E06-AAA-6xHis; VNAR clone E06
